# Data published in IntAct's records for PubMed 17412836.
# B1: Protein Nef (Human immunodeficiency virus type 1 group M subtype B (isolate Lai)), Q9QPN3 (parent)
# chain: MGGKWSKSSVVGWPAVRERMRRAEPAADGVGAVSRDLEKHGAITSSNTAATNADCAWLEAQEEEEVGFPVTPQVPLRPMTYKAAVDLSHFLKEKGGLEGLIHSQRRQDILDLWIYHTQGYFPDWQNYTPEPGVRYPLTFGWCYKLVPVEPDKVEEANKGENTRLLHPVSLHGMDDPEREVLEWRFDSRLAFHHVARELHPEY
# partner: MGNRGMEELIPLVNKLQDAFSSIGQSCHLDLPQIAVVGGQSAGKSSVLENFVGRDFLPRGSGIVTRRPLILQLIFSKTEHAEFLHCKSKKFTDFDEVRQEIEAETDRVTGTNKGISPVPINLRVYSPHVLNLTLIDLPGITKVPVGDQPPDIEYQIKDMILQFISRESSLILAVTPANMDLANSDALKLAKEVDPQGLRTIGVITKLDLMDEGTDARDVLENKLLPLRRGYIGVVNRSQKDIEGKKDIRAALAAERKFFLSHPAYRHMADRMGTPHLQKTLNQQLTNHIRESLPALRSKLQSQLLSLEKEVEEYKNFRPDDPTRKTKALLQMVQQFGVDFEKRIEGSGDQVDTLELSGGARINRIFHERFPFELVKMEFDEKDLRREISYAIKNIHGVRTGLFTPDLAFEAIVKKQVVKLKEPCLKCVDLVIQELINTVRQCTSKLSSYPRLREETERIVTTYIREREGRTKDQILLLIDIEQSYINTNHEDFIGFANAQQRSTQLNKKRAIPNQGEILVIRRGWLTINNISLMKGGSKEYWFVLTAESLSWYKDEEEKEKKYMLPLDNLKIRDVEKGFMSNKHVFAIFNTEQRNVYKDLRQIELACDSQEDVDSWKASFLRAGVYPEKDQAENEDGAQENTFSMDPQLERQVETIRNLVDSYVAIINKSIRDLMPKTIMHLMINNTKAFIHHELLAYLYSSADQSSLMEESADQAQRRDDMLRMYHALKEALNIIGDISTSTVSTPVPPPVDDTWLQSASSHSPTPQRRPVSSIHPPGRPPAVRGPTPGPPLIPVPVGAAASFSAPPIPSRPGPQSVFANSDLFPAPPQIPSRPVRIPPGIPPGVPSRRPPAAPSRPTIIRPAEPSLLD
# Variants of: B1
# Conditions: with dyn2_human DNM2, P50570
row,Variant,effect of a mutation on the interaction
1,G2A;G3A,disrupting interaction strength
2,L112A,decreasing interaction strength
3,F121A,decreasing interaction strength
4,F121A;D123A,disrupting interaction strength
5,D123A,decreasing interaction strength
